Among the data in patent US20040059519A1 are MIF of Fm, MIF AVG and MIF of FL1 values, retold here.

Test [1] deals with Human chorionic gonadotropin (human) (UniProt P01215). The experiment in a line: anti-AFP capture beads, flow cytometry; hCG 0.0 ng/mL, anti-AFP probe.
Test [2] concerns the target Alpha fetoprotein (UniProt P02771). The experiment in a line: multiplex no-wash sandwich, S10473 beads; serum Level 2, AFP 53.8 U/mL.
Test [3] shares this target. The experiment in a line: anti-AFP capture beads, flow cytometry; AFP 10.0 ng/mL, anti-AFP probe.
The target is the same in test [4]. The experiment in a line: multiplex no-wash sandwich, S10473 beads; serum Level 3, AFP 223 U/mL.
Test [5] shares this target. Put plainly: multiplex sandwich, S10473 capture beads; AFP 2 ng/mL, no wash.
Test [6] shares this target. The experiment in a line: multiplex sandwich, S10473 capture beads; AFP 16 ng/mL, no wash.
For test [7] the target is unchanged. The experiment in a line: multiplex sandwich, S10473 capture beads; AFP 2 ng/mL, washed.
For test [8] the target is unchanged. Put plainly: multiplex sandwich, S10473 capture beads; AFP 31 ng/mL, washed.
Test [9] has the same target. Put plainly: multiplex sandwich, S10473 capture beads; AFP 0 ng/mL, no wash.
Test [10] has the same target. Put plainly: anti-AFP capture beads, flow cytometry; AFP 1000.0 ng/mL, anti-AFP probe.
Test [11] shares this target. Put plainly: multiplex sandwich, S10473 capture beads; AFP 125 ng/mL, washed.
Test [12] has as its target Human chorionic gonadotropin (human) (UniProt P01215). Put plainly: anti-AFP capture beads, flow cytometry; hCG 0.1 ng/mL, anti-AFP probe.
The target is the same in test [13]. The experiment in a line: anti-AFP capture beads, flow cytometry; hCG 10.0 ng/mL, anti-AFP probe.
Test [14] deals with Neutravidin (deglycosylated avidin) (UniProt P02701). The experiment in a line: single-analyte, Neutravidin bead 60/70 without peptide, flow cytometry.
UniProt P02701, sequence (P02701 25-152 limits assumed): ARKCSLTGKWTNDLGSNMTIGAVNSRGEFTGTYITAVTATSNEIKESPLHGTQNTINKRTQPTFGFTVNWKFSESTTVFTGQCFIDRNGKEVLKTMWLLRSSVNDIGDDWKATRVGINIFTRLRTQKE
Test [15] addresses Peptide 3 …-biotin. Put plainly: multiplex 9-peptide bead set, flow cytometry; MAB 384-Bodipy 15.5 ug/mL.
The target of test [16] is Peptide 9 …-biotin. Described as above.
The target of test [17] is Peptide 8 …-biotin. Described as above.
Test [18] deals with Peptide 4 …-biotin. The test is described as above.
Test [19] concerns the target Peptide 7 …-biotin. The description is as above.
Test [20] concerns the target Peptide 2 …-biotin. Described as above.
Test [21] addresses Peptide 5 …-biotin (human). The test is described as above.
Test [22] addresses Peptide 6 …-biotin. The description is as above.
Test [23] concerns the target Peptide 1 …-biotin. Described as above.
For test [24], the target named is Neutravidin (deglycosylated avidin) (UniProt P02701). The experiment in a line: single-analyte, Neutravidin bead 40/60 without peptide, flow cytometry.
Test [25] shares this target. Put plainly: multiplex, Neutravidin bead 70/50 without peptide, flow cytometry.
The target of test [26] is Alpha fetoprotein (UniProt P02771). The experiment in a line: MAB602 capture beads, flow cytometry; AFP 100.0 ng/mL, anti-hCG probe.
The target in test [27] is Human chorionic gonadotropin (human) (UniProt P01215). Put plainly: sandwich, MAB602 capture beads, flow cytometry; hCG 2000 ng/mL.
The target is the same in test [28]. Put plainly: multiplex sandwich, MAB602 capture beads; hCG 250 ng/mL, no wash.
The target is the same in test [29]. The experiment in a line: multiplex no-wash sandwich, MAB602 beads; serum Level 2, hCG 26.4 mU/mL.
The target is the same in test [30]. Put plainly: sandwich, MAB602 capture beads, flow cytometry; hCG 200 ng/mL.
The target is the same in test [31]. Put plainly: sandwich, MAB602 capture beads, flow cytometry; hCG 0 ng/mL.
Test [32] has the same target. Put plainly: multiplex sandwich, MAB602 capture beads; hCG 31 ng/mL, washed.
Test [33] has the same target. The experiment in a line: sandwich, MAB602 capture beads, flow cytometry; hCG 0.2 ng/mL.
Test [34] shares this target. Put plainly: multiplex no-wash sandwich, MAB602 beads; serum Level 1, hCG 22.8 mU/mL.
Test [35] shares this target. The experiment in a line: multiplex sandwich, MAB602 capture beads; hCG 1 ng/mL, washed.
The target is the same in test [36]. Put plainly: multiplex sandwich, MAB602 capture beads; hCG 31 ng/mL, no wash.
Test [37] has as its target Alpha fetoprotein (UniProt P02771). The experiment in a line: anti-AFP capture beads, flow cytometry; AFP 10.0 ng/mL, anti-hCG probe.
For test [38] the target is unchanged. Put plainly: anti-AFP capture beads, flow cytometry; AFP 0.1 ng/mL, anti-hCG probe.
For test [39], the target named is Human chorionic gonadotropin (human) (UniProt P01215). Put plainly: multiplex sandwich, MAB602 capture beads; hCG 2000 ng/mL, washed.
The target in test [40] is Alpha fetoprotein (UniProt P02771). Put plainly: MAB602 capture beads, flow cytometry; AFP 0.0 ng/mL, anti-hCG probe.
For test [41] the target is unchanged. The experiment in a line: MAB602 capture beads, flow cytometry; AFP 1.0 ng/mL, anti-hCG probe.

Values joined by “and” are separate entries in the source; they are usually repeats but may differ in a detail not shown here. Equal values may be shown once.

UniProt P02771, sequence (P02771 19-609 limits assumed): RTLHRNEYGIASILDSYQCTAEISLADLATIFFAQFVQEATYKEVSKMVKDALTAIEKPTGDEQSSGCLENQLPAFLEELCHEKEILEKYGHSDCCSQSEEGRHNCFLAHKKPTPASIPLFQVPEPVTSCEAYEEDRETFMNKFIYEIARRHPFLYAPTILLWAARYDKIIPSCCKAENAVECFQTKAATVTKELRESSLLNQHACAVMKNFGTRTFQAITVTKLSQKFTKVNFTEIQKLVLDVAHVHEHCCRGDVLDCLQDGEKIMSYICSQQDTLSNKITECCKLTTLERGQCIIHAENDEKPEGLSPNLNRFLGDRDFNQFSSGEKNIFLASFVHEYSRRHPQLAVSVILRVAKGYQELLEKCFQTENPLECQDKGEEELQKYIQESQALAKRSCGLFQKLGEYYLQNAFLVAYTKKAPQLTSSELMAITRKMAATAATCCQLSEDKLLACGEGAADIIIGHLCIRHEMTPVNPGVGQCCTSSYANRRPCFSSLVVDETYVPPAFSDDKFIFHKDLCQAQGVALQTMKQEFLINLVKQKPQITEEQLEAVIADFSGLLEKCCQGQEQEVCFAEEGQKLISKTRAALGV
UniProt P01215, sequence (P01215 25-116, chain 1 of 2, other chains not shown): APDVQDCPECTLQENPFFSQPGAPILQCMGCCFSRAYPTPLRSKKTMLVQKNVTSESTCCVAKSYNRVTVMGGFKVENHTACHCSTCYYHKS

Turning to “M20077 affinity purified polyclonal anti-AFP antibody, Bodipy FL-CASE labeled”, the MIF of Fm in test [1] turned out to be 45; in [3] it was 103; in test [5], 51; in test [6] it was 359; in test [7], 59; in [8], 612. Also, the MIF of Fm in [9] amounted to 15; in test [10], 348; in [11], 1050; in test [12], 49; in test [13], 45. Besides, the MIF AVG in test [2] is 363; in [4], 1060. Further, the MIF of FL1 in test [2] is 351 and 365 and 372; in [4] it was 1110 and 994 and 1080.
Turning to MAB 384, Bodipy FL-X labeled (antibody), the MIF of Fm in test [14] is 48; in test [15] it was 36; in test [16] it was 29; in test [17], 32; in test [18], 35; in test [19], 35. The MIF of Fm in test [20] was 36; in test [21], 1350; in test [22] it was 67; in [23], 28; in [24], 54; in test [25] it was 28.
For the substance “AB633 affinity purified polyclonal anti-hCG antibody, Bodipy FL-CASE labeled”, the MIF of Fm was 47 in test [26]; 9290 and 9390 in [27]; 1520 in test [28]; 9230 and 9400 in test [30]; 128 and 111 in test [31]; 3180 in test [32]. Besides, the MIF of Fm was 258 and 254 in test [33]; 359 in test [35]; 2510 in [36]; 44 in [37]; 75 in [38]; 3190 in test [39]. Moreover, the figures for the MIF of Fm in test [40] and in [41] were 71 and 47, respectively. For the same substance, the MIF AVG amounted to 31.7 in test [29] and 25.7 in test [34]. Also, the MIF of FL1 in test [29] was 32 and 34 and 29; in test [34], 23 and 27.
